According to PMC3615019, “Mapping the Binding Interface between an HIV-1 Inhibiting Intrabody and the Viral Protein Rev” (PLoS ONE, 2013):

Biological target: T1, HIV-1 Rev protein (mobility shift assay, bound to stem-loop IIB RRE RNA) (HIV-1, strain  for this …, UniProt P04618)
T1 construct: also called IIB associated Rev
Experiment: native gel or EMSA
Settings: both partners purified

T1 sequence (P04618 whole entry): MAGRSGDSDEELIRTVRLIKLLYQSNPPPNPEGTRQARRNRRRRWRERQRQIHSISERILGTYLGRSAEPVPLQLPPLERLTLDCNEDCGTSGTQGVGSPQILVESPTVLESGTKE

B1: Nb190, wild type, purified from E. coli (VHH)
VHH: QVQLQESGGGLVQAGGSLRLSCAASGSIFSINTMGWYRQAPGKQRELVAFATSGGSTNYPDSVKGRFTISRDNVKNTVYLQMNSLKPEDTAVYYCNIDGFLGSLYKDYWSQGTQVTVSS
**Q.** Does B1 bind?
**A.** binds
